B4: Arabidopsis thaliana NBR1 PB1 domain, residues 1-95 (domain or fragment)
chain: MESTANALVVKVSYGGVLRRFRVPVKANGQLDLEMAGLKEKIAALFNLSADAELSLTYSDEDGDVVALVDDNDLFDVTNQRLKFLKINVNAGVST

The data set “sedimentation” concerns the molecule itself. The data set is described as follows: sedimentation.
Data set [1] concerns the target B4. The data set is described as follows: pull-down.

B1: TFG-1 (Trk-fused gene 1) PB1 domain, residues 1-95 (domain or fragment)
chain: MNGQLDLSGKLIIKAQLGEDIRRIPIHNEDITYDELVLMMQRVFRGKLLSNDEVTIKYKDEDGDLITIFDSSDLSFAIQCSRILKLTLFVNGQPR
For B1, in “sedimentation”, the binding result is on record as “binds”.

B2: p62/SQSTM1 PB1 domain, residues 1-102 (domain or fragment)
chain: MASLTVKAYLLGKEDAAREIRRFSFCCSPEPEAEAEAAAGPGPCERLLSRVAALFPALRPGGFQAHYRDEDGDLVAFSSDEELTMAMSYVKDDIFRIYIKEK
Consider B2, for which, in the data set “sedimentation”, the binding result is “binds”.

B3: MBP-tagged wild-type AtNBR1-PB1 (domain or fragment)
chain: MESTANALVVKVSYGGVLRRFRVPVKANGQLDLEMAGLKEKIAALFNLSADAELSLTYSDEDGDVVALVDDNDLFDVTNQRLKFLKINVNAGVST
Turning to B3, the binding result in data set [1] is “binds”. With B4, the binding result in the data set “sedimentation” is listed as “binds”.

For the origin of these results see doi:10.1101/671792 (bioRxiv, 2019).
